Test results from patent publication US20250213684A1 (Novartis, published 2025).
Several values for one entry are separate records, joined by “and”; a condition that tells them apart may be missing. Equal values may be shown once.

T1: ratTIM-3/Fc (rat, UniProt P0C0K5 22-194, limits assumed)
T1 construct: also called rat TIM-3/Fc protein
T1 sequence (looked up): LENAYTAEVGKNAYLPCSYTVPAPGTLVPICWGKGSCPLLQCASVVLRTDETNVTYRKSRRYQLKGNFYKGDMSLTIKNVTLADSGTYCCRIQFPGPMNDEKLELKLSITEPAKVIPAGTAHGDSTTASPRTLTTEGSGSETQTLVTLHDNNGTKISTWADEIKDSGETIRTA

T2: cynoTIM-3/Fc (cynomolgus monkey, UniProt A0A2K5U3G7 22-195)
T2 sequence: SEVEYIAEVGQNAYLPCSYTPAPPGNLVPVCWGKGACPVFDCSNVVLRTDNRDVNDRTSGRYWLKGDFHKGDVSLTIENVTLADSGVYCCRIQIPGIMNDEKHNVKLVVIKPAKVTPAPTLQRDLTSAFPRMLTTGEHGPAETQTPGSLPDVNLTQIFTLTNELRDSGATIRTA


Legend:
[1] = molecular target: T3, TIM-3 (antigen; species and construct not stated for the assay) (UniProt Q8TDQ0 22-202, limits assumed); assay: SPR (Biacore), run of May 30, 2014
[2] = molecular target: T3, TIM-3 (antigen; species and construct …); assay: SPR (Biacore), run of May 1, 2014
[3] = molecular target: T3, TIM-3 (antigen; species and construct …); assay: SPR (Biacore), run of Apr. 29, 2014
[4] = molecular target: T3, TIM-3 (antigen; species and construct …); assay: FACS competition binding against the parent murine ABTIM3; cells not named on the sheet
[5] = molecular target: T3, TIM-3 (antigen; species and construct …); assay: SPR (Biacore), run of Apr. 7, 2014
ratTIM-3/Fc = molecular target: T1, ratTIM-3/Fc; assay: SPR (Biacore), run 2
cynoTIM-3/Fc [6] = molecular target: T2, cynoTIM-3/Fc; assay: SPR (Biacore), run 2
cynoTIM-3/Fc [7] = molecular target: T2, cynoTIM-3/Fc; assay: SPR (Biacore), run 1; run 1 of three; cynoTIM-3/Fc
cynoTIM-3/Fc [8] = molecular target: T2, cynoTIM-3/Fc; assay: SPR (Biacore), mean KD
cynoTIM-3/Fc [9] = molecular target: T2, cynoTIM-3/Fc; assay: SPR (Biacore), run 3
[10] = molecular target: T4, human TIM-3 expressed on cells (human, UniProt Q8TDQ0 22-301); assay: flow cytometry competition on 300.19 hTIM-3 cells against PE-labelled ABTIM3-hum21
T4 construct: also called huTIM-3; hTIM-3

huTIM-3/his = molecular target: T5, huTIM-3/his (human, UniProt Q8TDQ0 22-202); assay: Biacore, 2nd antibody injection; 1st antibody (competitor) ABTIM3-hum21
T5 construct: also called hTIM-3/his antigen

[11] = molecular target: T4, human TIM-3 expressed on cells; assay: flow cytometry on cells expressing human TIM-3

Binder	Kd [1]	Kd [2]	IC50 (read off the curve) [4]	Kd [5]	further results
ABTIM3-hum02 (antibody, human IgG4 S228P, kappa, V domains shown, Humanized) VH: QVQLVQSGAEVKKPGASVKVSCKASGYTFTSYNMHWVRQAPGQGLEWIGDIYPGSGDTSYNQKFKGRATMTADKSTSTVYMELSSLRSEDTAVYYCARVGGAFPMDYWGQGTLVTVSS VL: DIVLTQSPDSLAVSLGERATINCRASESVEYYGTSLMQWYQQKPGQPPKLLIYAASNVESGVPDRFSGSGSGTDFTLTISSLQAEDVAVYYCQQSRKDPSTFGGGTKVEIKR	0.174 nM	0.269 nM	–	–	Kd [3]: 0.308 nM
ABTIM3-hum07 (antibody, human IgG4 S228P, kappa, V domains shown, Humanized) VH: QVQLVQSGAEVKKPGASVKVSCKASGYTFTSYNMHWIRQAPGQGLEWIGDIYPGNGDTSYNQKFKGRATLTADKSTSTVYMELSSLRSEDTAVYYCARVGGAFPMDYWGQGTLVTVSS VL: DIVLTQSPDSLAVSLGERATINCRASESVEYYGTSLMQWYQQKPGQPPKLLIYAASNVESGVPDRFSGSGSGTDFTLTISSLQAEDVAVYYCQQSRKDPSTFGGGTKVEIKR	0.196 nM	0.199 nM	~0.2 µg/mL	0.135 nM	–
ABTIM3-hum01 (antibody, human IgG4 S228P, kappa, V domains shown, Humanized) VH: QVQLVQSGAEVKKPGASVKVSCKASGYTFTSYNMHWVRQAPGQGLEWIGDIYPGNGDTSYNQKFKGRATMTADKSTSTVYMELSSLRSEDTAVYYCARVGGAFPMDYWGQGTLVTVSS VL: DIVLTQSPDSLAVSLGERATINCRASESVEYYGTSLMQWYQQKPGQPPKLLIYAASNVESGVPDRFSGSGSGTDFTLTISSLQAEDVAVYYCQQSRKDPSTFGGGTKVEIKR	0.23 nM and 0.193 nM	0.114 nM	~0.2 µg/mL	0.103 nM	–
ABTIM3-hum03 (antibody, human IgG4 S228P, kappa, Humanized; Immobilized on Protein G beads and cross-linked with DSS in the HDx-MS experiment) heavy: not shown light: DIVLTQSPDSLAVSLGERATINCRASESVEYYGTSLMQWYQQKPGQPPKLLIYAASNVESGVPDRFSGSGSGTDFTLTISSLQAEDVAVYYCQQSRKDPSTFGGGTKVEIKRTVAAPSVFIFPPSDEQLKSGTASVVCLLNNFYPREAKVQWKVDNALQSGNSQESVTEQDSKDSTYSLSSTLTLSKADYEKHKVYACEVTHQGLSSPVTKSFNRGEC	–	–	–	–	Kd (ratTIM-3/Fc): 51 nM; Kd (cynoTIM-3/Fc [6]): 3.89 nM; Kd (cynoTIM-3/Fc [7]): 1.04 nM; Kd (cynoTIM-3/Fc [8]): 2.67 nM; Kd (cynoTIM-3/Fc [9]): 3.08 nM
ABTIM3-hum21 (antibody, human IgG1, kappa, Humanized) heavy: not shown light: DIVLTQSPDSLAVSLGERATINCRASESVEYYGTSLMQWYQQKPGQPPKLLIYAASNVESGVPDRFSGSGSGTDFTLTISSLQAEDVAVYYCQQSRKDPSTFGGGTKVEIKRTVAAPSVFIFPPSDEQLKSGTASVVCLLNNFYPREAKVQWKVDNALQSGNSQESVTEQDSKDSTYSLSSTLTLSKADYEKHKVYACEVTHQGLSSPVTKSFNRGEC	–	–	–	–	IC50 (read off the curve) [10]: ~0.4 µg/mL; change in RU (huTIM-3/his): 6.6 RU; Kd [11]: 0.917 nM

Second part, led by results:

Kd [1]	Kd [2]	IC50 (read off the curve) [4]	Kd [5]	Binder	further results
0.161 nM	–	–	–	ABTIM3-hum09 (antibody, human IgG4 S228P, kappa, V domains shown, Humanized) VH: QVQLVQSGAEVKKPGSSVKVSCKASGYTFTSYNMHWVRQAPGQGLEWMGDIYPGNGDTSYNQKFKGRVTITADKSTSTVYMELSSLRSEDTAVYYCARVGGAFPMDYWGQGTTVTVSS VL: EIVLTQSPATLSLSPGERATLSCRASESVEYYGTSLMQWYQQKPGQAPRLLIYAASNVESGIPARFSGSGSGTDFTLTISSLEPEDIAVYFCQQSRKDPSTFGGGTKVEIKR	–
0.332 nM	0.279 nM	–	–	ABTIM3-hum05 (antibody, human IgG4 S228P, kappa, V domains shown, Humanized) VH: QVQLVQSGAEVKKPGASVKVSCKASGYTFTSYNMHWIRQAPGQGLEWIGDIYPGSGDTSYNQKFKGRATLTADKSTSTVYMELSSLRSEDTAVYYCARVGGAFPMDYWGQGTLVTVSS VL: DIVLTQSPDSLAVSLGERATINCRASESVEYYGTSLMQWYQQKPGQPPKLLIYAASNVESGVPDRFSGSGSGTDFTLTISSLQAEDVAVYFCQQSRKDPSTFGGGTKVEIKR	Kd [3]: 0.313 nM
0.364 nM	0.214 nM	–	–	ABTIM3-hum06 (antibody, human IgG4 S228P, kappa, V domains shown, Humanized) VH: QVQLVQSGAEVKKPGASVKVSCKASGYTFTSYNMHWIRQAPGQGLEWIGDIYPGQGDTSYNQKFKGRATLTADKSTSTVYMELSSLRSEDTAVYYCARVGGAFPMDYWGQGTLVTVSS VL: DIVLTQSPDSLAVSLGERATINCRASESVEYYGTSLMQWYQQKPGQPPKLLIYAASNVESGVPDRFSGSGSGTDFTLTISSLQAEDVAVYFCQQSRKDPSTFGGGTKVEIKR	Kd [3]: 0.498 nM
0.175 nM	0.309 nM	~0.2 µg/mL	0.123 nM	ABTIM3-hum08 (antibody, human IgG4 S228P, kappa, V domains shown, Humanized) VH: QVQLVQSGAEVKKPGASVKVSCKASGYTFTSYNMHWVRQAPGQGLEWIGDIYPGNGDTSYNQKFKGRATMTADKSTSTVYMELSSLRSEDTAVYYCARVGGAFPMDYWGQGTLVTVSS VL: DIVLTQSPDSLAVSLGERATINCRASESVEYYGTSLMQWYQQKPGQPPKLLIYAASNVESGVPDRFSGSGSGTDFTLTISSLQAEDVAVYFCQQSRKDPSTFGGGTKVEIKR	–
0.172 nM	–	~0.2 µg/mL	0.216 nM	ABTIM3-hum04 (antibody, human IgG4 S228P, kappa, V domains shown, Humanized) VH: QVQLVQSGAEVKKPGASVKVSCKASGYTFTSYNMHWIRQAPGQGLEWIGDIYPGNGDTSYNQKFKGRATLTADKSTSTVYMELSSLRSEDTAVYYCARVGGAFPMDYWGQGTLVTVSS VL: DIVLTQSPDSLAVSLGERATINCRASESVEYYGTSLMQWYQQKPGQPPKLLIYAASNVESGVPDRFSGSGSGTDFTLTISSLQAEDVAVYFCQQSRKDPSTFGGGTKVEIKR	–
0.107 nM	–	–	–	ABTIM3-hum10 (antibody, human IgG4 S228P, kappa, V domains shown, Humanized) VH: EVQLVQSGAEVKKPGESLKISCKGSGYTFTSYNMHWVRQMPGKGLEWMGDIYPGNGDTSYNQKFKGQVTISADKSISTVYLQWSSLKASDTAMYYCARVGGAFPMDYWGQGTTVTVSS VL: EIVLTQSPATLSLSPGERATLSCRASESVEYYGTSLMQWYQQKPGQAPRLLIYAASNVESGIPARFSGSGSGTDFTLTISSLEPEDIAVYFCQQSRKDPSTFGGGTKVEIKR	–
0.355 nM	–	–	–	ABTIM3-hum12 (antibody, human IgG4 S228P, kappa, V domains shown, Humanized) VH: EVQLVQSGAEVKKPGESLKISCKGSGYTFTSYNMHWVRQMPGKGLEWMGDIYPGNGDTSYNQKFKGQVTISADKSISTVYLQWSSLKASDTAMYYCARVGGAFPMDYWGQGTTVTVSS VL: AIQLTQSPSSLSASVGDRVTITCRASESVEYYGTSLMQWYQQKPGKAPKLLIYAASNVESGVPSRFSGSGSGTDFTLTISSLQPEDFATYFCQQSRKDPSTFGGGTKVEIKR	–
